Assay results taken from PMC5356828.

What was measured:
[1] = target: P-glycoprotein (human (endogenous in primary skin fibroblasts)) (UniProt P08183); test: co-IP; lysates of hypertrophic scar fibroblasts (HF) treated with latrunculin-A (0.2 μM) or DMSO for 12 h; IP with anti-P-glycoprotein or anti-MRP1 antibody, immunoblot for actin
[2] = target: multidrug resistance-associated protein 1 (human (endogenous in primary skin fibroblasts)) (UniProt P33527); test: as above

## actin (from UniProt P60709 1-375) (natural protein)
[1]
  percent loss of the co-precipitate after latrunculin-A: 90%
[2]
  percent loss of the co-precipitate after latrunculin-A: 70%
